Experimental data published in patent publication US12241094B2, “Phenazine degrading agents and related compositions, methods and systems for interfering with viability of bacteria” (priority 2016, dated 2025).
Entries after “also recorded” stand apart in the source; their conditions may differ.

Columns and labels:
[1] = tested on: P. aeruginosa PA14 biofilms; assay: Biofilm formation, surface coverage (chambered coverglass, DAPI); assay type: cell-based; conditions: for biofilm surface coverage: 5 hours
Method: Biofilm experiments. For all experiments involving inactivated PodA, either the E154A mutant or PodA30-162 that was subjected to a 1 hour treatment at 98° C. was used. To test the ability of PodA30-162 to degrade PYO in the presence of DNA, genomic DNA (gDNA) from P. aeruginosa PA14 was used in modified versions of previously described assays (59). For experiments using DNA pellets, 0.5 mg of gDNA was pelleted in the presence of 300 mM sodium acetate, pH 5.2 and 70% ethanol. Pellets were washed with 70% ethanol and dried. 200 μL of 800 μM PYO was added to the gDNA pellet without mixing and left to sit at room temperature for 6 hours to allow for diffusion of PYO into the gDNA pellet. The pellet was washed once with 70% EtOH, and submerged in a solution containing 10 mM Tris, pH 7.0 and 40% isopropanol. The pellet remained blue, consistent with an association of PYO with DNA. PodA30-162 was added to the isopropanol solution to a final concentration of 2 μg mL^−1 and left to sit for 3 hours to allow for the reaction to proceed. Tubes were imaged before and after PodA30-162 treatment. For experiments using solubilized gDNA, a 400 μg mL^−1 solution of gDNA was mixed with PYO and allowed to equilibrate for 6 hours. The PYO gDNA mixture was amended with 1 μg mL^−1 PodA30-162 and loss of PYO was monitored on a BioTek Synergy 4 microplate reader (BioTek) plate reader at 690 nm. Standards were included to quantify PYO loss over time. To assess biofilm formation in the presence of PodA30-162, biofilms were grown in Nunc Lab-Tek chambered coverglass slides (8-well, 0.8 cm^2 area, supplier #155411) using a modified protocol (22). PA14 was inoculated into succinate minimal medium and grown overnight to stationary phase. Cells were resuspended in fresh medium and diluted to a starting OD500 of 0.5 in succinate minimal medium. PodA30-162 (2 μg mL^−1, final concentration) or DNase (20 μg mL^−1) (22) was added and 250 μL was added to each well of the 8-well chambered coverglass. Cultures were grown for 5 hours at 37° C. and 100 rpm (Innova 44 shaking incubator, New Brunswick) in a humidified chamber. After incubation, liquid was removed from each well by drawing with a pipet tip placed in the corner of each well and chambers were washed twice with 400 μL of biofilm wash (Tris buffer, pH 7.6 and 100 mM NaCl) to remove planktonic and loosely bound cells. Attached biomass was stained by adding 450 μL biofilm wash containing 10 μg mL^−1 DAPI (4′,6-diamidino-2-phenylindole) (Santa Cruz Biotechnology). Surface associated biomass was imaged on a Leica TCS SPE confocal microscope with a ACS APO 40×/1.15 oil immersion objective. A 405 nm solid-state laser was used for excitation, and data was collected from 420-500 nm. […]

[2] = PYO demethylation in the presence of DNA; assay type: biochemical; conditions: gDNA pellet, 2 μg mL^−1, 3 hours
Method: Biofilm experiments. For all experiments involving inactivated PodA, either the E154A mutant or PodA30-162 that was subjected to a 1 hour treatment at 98° C. was used. To test the ability of PodA30-162 to degrade PYO in the presence of DNA, genomic DNA (gDNA) from P. aeruginosa PA14 was used in modified versions of previously described assays (59). For experiments using DNA pellets, 0.5 mg of gDNA was pelleted in the presence of 300 mM sodium acetate, pH 5.2 and 70% ethanol. Pellets were washed with 70% ethanol and dried. 200 μL of 800 μM PYO was added to the gDNA pellet without mixing and left to sit at room temperature for 6 hours to allow for diffusion of PYO into the gDNA pellet. The pellet was washed once with 70% EtOH, and submerged in a solution containing 10 mM Tris, pH 7.0 and 40% isopropanol. The pellet remained blue, consistent with an association of PYO with DNA. PodA30-162 was added to the isopropanol solution to a final concentration of 2 μg mL^−1 and left to sit for 3 hours to allow for the reaction to proceed. Tubes were imaged before and after PodA30-162 treatment. […] The PYO gDNA mixture was amended with 1 μg mL^−1 PodA30-162 and loss of PYO was monitored on a BioTek Synergy 4 microplate reader (BioTek) plate reader at 690 nm. Standards were included to quantify PYO loss over time. […]

P. aeruginosa biofilm = assay: Optical density of P. aeruginosa biofilm; assay type: cell-based; conditions: PodA vs inactive E154A; 1-OH-PHZ vs 1% DMSO
[3] = tested on: P. aeruginosa biofilm aggregates; assay: Biofilm aggregates embedded in agar blocks (anoxic fitness); assay type: cell-based; conditions: 22 hours growth then 5 hour treatment, 2 μg mL^−1; ~300 μm and deeper below agar surface
Method: Biofilm aggregate experiments. To test the effect of oxygen limitation in the presence of PodA30-162, biofilm aggregates were grown embedded in 0.5% noble agar blocks containing succinate minimal medium. Cultures were grown overnight to stationary phase in LB, washed once with succinate minimal medium, and resuspended to OD600 1.0. Samples were diluted 1:100 in agar at 44° C. and 175 μL was transferred to Nunc Lab-Tek chambered coverglass slides (8-well, 0.7 cm^2 area, supplier #155409). […] SYTO-9 from the LIVE/DEAD stain kit was used in place of DAPI to minimize background fluorescence. […] Biomass was quantified in ImageJ software (60) by identifying the Z-slice with the highest average fluorescent intensity (generally […] the agar surface), and setting the pixel threshold using the default ImageJ thresholding parameters at the Z-slice equivalent to the 100 μm depth. The number of particles in each slice of the Z-stack was determined using this threshold value and counting particles >10 μm^2 in area. […] Particle numbers for each slice were averaged between independent experiments and plotted against depth to quantify biofilm aggregates. […]
Oxygen diffusion modeling. […] Given these values, average cell number per mL was estimated by dividing the volume of total detected biofilm aggregates by the average volume of a P. aeruginosa cell (62) yielding a cell density estimate of 5×10^8. […]

B1: PodA30-162: truncated pyocyanin demethylase encoded by MFORT_14352 of Mycobacterium fortuitum lacking N-terminal helix, SEQ ID NO: 2 (protein, listed as Mycobacterium fortuitum)
chain: MDGRGGRSTTEPVTMTLDVKNDQVAKHDFGKPGMDVGDMDIFSDILSVDGKQVGYDGGACFFTNVTPDNPMTYCELTIHLDAGEIFARSLTPHTLAPFTMAITGGTGEYANSKGELTVSGVATPDEKYELKLTKAENLYFQ
- biofilm surface coverage ([1]; PodA30-162 2 μg mL^−1, DNase 20 μg mL^−1, vs. PodA-inactive): reduced; also recorded: lower
- biofilm surface coverage ([1]; representative images, 82.7 percent in the absence of PodA30-162): 43.5%
- phenazines in biofilm supernatants by HPLC ([1]; after 5 hours of growth): conversion of PYO to 1-OH-PHZ
- demethylation of PYO associated with precipitated DNA [2]: not protected
- optical density of biofilm (P. aeruginosa biofilm): significantly decreased
- detectable biofilm aggregates at anoxic depths [3]: sharper decline in detectable aggregates; also recorded: apparent biomass defect specifically at anoxic depths
